From paper PMC3925968, “Single molecule FRET reveals pore size and opening mechanism of a mechano-sensitive ion channel” (eLife, 2014)

B1: E. coli MscL (EcoMscL) M42C (natural protein, UniProt P0A742 1-136, looked up)
chain: MSIIKEFREFAMRGNVVDLAVGVIIGAAFGKIVSSLVADIICPPLGLLIGGIDFKQFAVTLRDAQGDIPAVVMHYGVFIQNVFDFLIVAFAIFMAIKLINKLNRKKEEPAAAPAPTKEEVLLTEIRDLLKEQNNRS
modifications: Alexa Fluor 488 and/or Alexa Fluor 568 maleimide on the introduced cysteine (stochastic labelling)
notes: Mechanosensitive channel of large conductance MscL, Escherichia coli, single cysteine mutant on TM1; The MscL gene was cloned into pQE-32 as a BamHI-SalI fragment; 5% labeled channels were mixed with 95% unlabeled ones for reconstitution; also called mechanosensitive channel of large conductance; source: E. coli M15, purified from DDM solubilized membranes (TALON, FPLC Superdex 200), …
B2: E. coli MscL (EcoMscL) I25C (natural protein, UniProt P0A742 1-136, looked up)
chain: MSIIKEFREFAMRGNVVDLAVGVICGAAFGKIVSSLVADIIMPPLGLLIGGIDFKQFAVTLRDAQGDIPAVVMHYGVFIQNVFDFLIVAFAIFMAIKLINKLNRKKEEPAAAPAPTKEEVLLTEIRDLLKEQNNRS
modifications: Alexa Fluor 488 and/or Alexa Fluor 568 maleimide on the introduced cysteine (stochastic labelling)
notes: Mechanosensitive channel of large conductance MscL, Escherichia coli, single cysteine mutant on TM1 near the pore constriction; Same construct as m1 apart from the cysteine position; Pentamer on cited work; some hexamers not excluded; source: E. coli M15, purified from DDM solubilized membranes (TALON, FPLC Superdex 200), reconstituted into liposomes; not shown: His6, N-terminal, kept
B3: E. coli MscL (EcoMscL) Q80C (natural protein, UniProt P0A742 1-136, looked up)
chain: MSIIKEFREFAMRGNVVDLAVGVIIGAAFGKIVSSLVADIIMPPLGLLIGGIDFKQFAVTLRDAQGDIPAVVMHYGVFICNVFDFLIVAFAIFMAIKLINKLNRKKEEPAAAPAPTKEEVLLTEIRDLLKEQNNRS
modifications: Alexa Fluor 488 and/or Alexa Fluor 568 maleimide on the introduced cysteine (stochastic labelling)
notes: Mechanosensitive channel of large conductance MscL, Escherichia coli, single cysteine mutant on TM2; Same construct as m1 apart from the cysteine position; Pentamer on cited work; some hexamers not excluded; source: E. coli M15, purified from DDM solubilized membranes (TALON, FPLC Superdex 200), reconstituted into liposomes; not shown: His6, N-terminal, kept
B4: E. coli MscL (EcoMscL) Y75C (natural protein, UniProt P0A742 1-136, looked up)
chain: MSIIKEFREFAMRGNVVDLAVGVIIGAAFGKIVSSLVADIIMPPLGLLIGGIDFKQFAVTLRDAQGDIPAVVMHCGVFIQNVFDFLIVAFAIFMAIKLINKLNRKKEEPAAAPAPTKEEVLLTEIRDLLKEQNNRS
modifications: Alexa Fluor 488 and/or Alexa Fluor 568 maleimide on the introduced cysteine (stochastic labelling)
notes: as for B3
B5: E. coli MscL (EcoMscL) V82C (natural protein, UniProt P0A742 1-136, looked up)
chain: MSIIKEFREFAMRGNVVDLAVGVIIGAAFGKIVSSLVADIIMPPLGLLIGGIDFKQFAVTLRDAQGDIPAVVMHYGVFIQNCFDFLIVAFAIFMAIKLINKLNRKKEEPAAAPAPTKEEVLLTEIRDLLKEQNNRS
modifications: Alexa Fluor 488 and/or Alexa Fluor 568 maleimide on the introduced cysteine (stochastic labelling)
notes: as for B3
B6: E. coli MscL (EcoMscL) A27C (natural protein, UniProt P0A742 1-136, looked up)
chain: MSIIKEFREFAMRGNVVDLAVGVIIGCAFGKIVSSLVADIIMPPLGLLIGGIDFKQFAVTLRDAQGDIPAVVMHYGVFIQNVFDFLIVAFAIFMAIKLINKLNRKKEEPAAAPAPTKEEVLLTEIRDLLKEQNNRS
modifications: Alexa Fluor 488 and/or Alexa Fluor 568 maleimide on the introduced cysteine (stochastic labelling)
notes: Mechanosensitive channel of large conductance MscL, Escherichia coli, single cysteine mutant on TM1; Same construct as m1 apart from the cysteine position; Pentamer on cited work; some hexamers not excluded; source: E. coli M15, purified from DDM solubilized membranes (TALON, FPLC Superdex 200), reconstituted into liposomes; not shown: His6, N-terminal, kept

Target: the molecule itself
Assay: FRET or BRET; single molecule FRET (TIRF) between one AF488 donor and one AF568 acceptor on the single cysteines of two subunits of one channel; channels in ~50 nm POPC liposomes with 2% BPE, immobilised on a coverslip by biotin-neutravidin; without and with 25% LPC

Binding result, binds:
B1, B2, B3, B4, B5, B6
